Read-outs that look alike come from different tables or passages of the source.
Assays:
Aβ42 amyloid fibrils = Aβ42 amyloid fibrils (UniProt P05067); experiment: microfluidic diffusional sizing; Alexa647-labelled BRICHOS held constant (three concentrations a curve set), Aβ42 fibrils varied between 0.01 and 24 µM (monomer equivalents), incubated 48 h; global fit of Kd and stoichiometry
[1] = target: WT α-Synuclein amyloid fibrils (human) (UniProt P37840); experiment: microfluidic diffusional sizing; Alexa647-labelled BRICHOS held constant (three concentrations a curve set), α-Syn fibrils varied between 0.01 and 24 µM (monomer equivalents), equilibrium within 2 hours; global fit of Kd and stoichiometry
[2] = target: WT α-Synuclein amyloid fibrils (human) (UniProt P37840); experiment: as above; remark: listed apart in the source
[3] = target: WT α-Synuclein amyloid fibrils (human) (UniProt P37840); experiment: NMR signal intensity ([15N,1H]-HMQC), competition; 100 µM 15N-labelled α-Syn monomer with 540 µM unlabelled α-Syn fibrils, 2 h at 4 °C, then unlabelled Var II added at 100, 300 or 500 µM, followed for ~120 min; 25 mM phosphate, 25 mM NaCl, pH ~6.8
[4] = target: WT α-Synuclein amyloid fibrils (human) (UniProt P37840); experiment: single-molecule TIRF microscopy (single particle tracking); α-Syn fibrils immobilised on a glass coverslip, blocked with BSA; Atto647-labelled Var II added at 1-100 nM in PBS
[5] = target: the molecule itself; experiment: multi-angle light scattering; proSP-C BRICHOS alone in solution; molecular mass read out; conditions not stated
[6] = target: T1, proSP-C BRICHOS (K114I, R139Q) (UniProt P11686 90-197, K114I | R139Q, Alexa647 label in the microfluidic diffusional sizing (site not stated); Atto647 succinimidyl ester (amine labelling) in the single-molecule microscopy; 15N labelled in the NMR binding experiments …); experiment: NMR titration; 15N-labelled Var II, [15N,1H]-TROSY, peptide added at 100 µM to 2 mM; 25 mM phosphate, 25 mM NaCl, pH ~6.8, 2.5% DMSO, 303 K; settings: both partners purified
T1 construct: BRICHOS domain of proSP-C, residues 90-197, with two salt-bridge mutations of the trimer interface; Monomer by light scattering, diffusional sizing and NMR structure; also called variant II; Var II; source: E. coli BL21(DE3*) pLysS, purified (Ni-NTA, TEV digestion, Ni chromatography, SEC); not shown: His tag, N-terminal, cleaved; NT* solubility tag, N-terminal, cleaved
T1 sequence (looked up): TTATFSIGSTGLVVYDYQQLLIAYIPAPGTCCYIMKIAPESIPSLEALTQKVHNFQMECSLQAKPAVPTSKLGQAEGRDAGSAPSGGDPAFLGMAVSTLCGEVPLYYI

[7] = scale: monomer units in the fibril per BRICHOS molecule

WT proSP-C BRICHOS domain (residues 90-197) (from UniProt P11686 90-197) (domain or fragment)
Kd (Aβ42 amyloid fibrils): 192 nM
stoichiometry N (Aβ42 amyloid fibrils; scale: Aβ42 monomer units on the fibril per BRICHOS molecule): 8
Kd [1]: 696 nM
stoichiometry N ([1]; scale: monomer units of α-Syn per BRICHOS molecule): 38

proSP-C BRICHOS (E135R, R139E) (from UniProt P11686 90-197) (domain or fragment)
Kd [1]: 1260 nM
stoichiometry N [1, 7]: 18
Kd [2]: 1.26 nM

proSP-C BRICHOS (K114I, R139Q) (from UniProt P11686 90-197) (domain or fragment)
percent of fibril-bound monomeric α-Syn released (100 µM Var II) [3]: 25%
percent of fibril-bound monomeric α-Syn released (300 µM Var II) [3]: 50%
percent of fibril-bound monomeric α-Syn released (500 µM Var II) [3]: 65%
Kd (Aβ42 amyloid fibrils): 21.4 nM
stoichiometry N (Aβ42 amyloid fibrils; [7]): 6
Kd [1]: 450 nM
stoichiometry N ([1]; scale: monomer units in the fibrils per BRICHOS molecule): 7
residence time on the fibrils [4]: 350 to 400 ms
residence time on the fibrils (three exemplary molecules) [4]: 100 s
Kd [2]: 450000 nM

B1: WT proSP-C BRICHOS domain (residues 90-197) (domain or fragment, UniProt P11686 90-197, looked up)
chain: TTATFSIGSTGLVVYDYQQLLIAYKPAPGTCCYIMKIAPESIPSLEALTRKVHNFQMECSLQAKPAVPTSKLGQAEGRDAGSAPSGGDPAFLGMAVSTLCGEVPLYYI
modifications: Alexa647 label in the microfluidic diffusional sizing (site not stated); 15N,13C labelled for NMR
notes: BRICHOS domain of the lung surfactant protein C precursor (proSP-C), residues 90-197; Homotrimer by light scattering, diffusional sizing and NMR structure; Disulfide bridges 120-148 and 121-189 were restrained in the structure calculation; BMRB entries 34811 and 34813 are printed without saying which is the trimer; also called WT BRICHOS; trimeric proSP-C BRICHOS; not shown: His tag, N-terminal, …
stoichiometry N [5]: 3

B2: client peptide B (peptide)
peptide: VLEMGSGSGSKKVVVVVKK
notes: model client peptide, designed to be able to form a beta hairpin; said to represent part of the transmembrane helical segment of native proSP-C; Dissolved in DMSO at 20 mM stock; also called substrate peptide; source: synthetic peptide; bought: GL Biochem, Shanghai
Kd [6]: ~800000 nM

Reference: PMC11579453 (Nature Communications, 2024)
